B1: brain derived neurotrophic factor (protein, UniProt P23560 19-247, looked up)
Neurotrophic factor BDNF …: APMKEANIRGQGGLAYPGVRTHGTLESVNGPKAGSRGLTSLADTFEHVIEELLDEDQKVRPNEENNKDADLYTSRVMLSSQVPLEPPLLFLLEEYKNYLDAANMSMRVRRHSDPARRGELSVCDSISEWVTAADKKTAVDMSGGTVTVLEKVPVSKGQLKQYFYETKCNPMGYTKEGCRGIDKRHWNSQCRTTQSYVRALTMDSKKRIGWRFIRIDTSCVCTLTIKRGR
notes: neurotrophin; BDNF Human Protein (Geneway)

Key:
[1] = Clearance of radiolabelled neurotrophin-3 by whole cochlear gamma counts; type: in vivo
Procedure: In vivo studies were carried out to determine the drug payload and clearance of neurotrophin delivered in a supraparticle implanted into the ear after 4 hr, 3 day and 7 days of implantation. The objective was to determine the amount of neurotrophin remaining in the cochlea over time.
1 SP containing radiolabelled neurotrophin-3 was implanted into each cochlea. Cochleae were harvested following 4 hrs (n=5), 3 d (n=7) or 7 d (n=4). Whole cochlear gamma counts were measured to determine the clearance of neurotrophin-3 over time. After 1 week of implantation each SP contained ˜2 ug of neurotrophin-3 (˜40%) of initial loaded amount.
Further experiments (n=2) were carried out to examine clearance of neurotrophin-3 following round window delivery. 3 days after implantation—whole cochlear measurements were again used to determine the clearance of neurotrophin-3 from the round window membrane.

[2] = BDNF perilymph concentration by ELISA after SP implantation; type: in vivo; settings: 2 electrosprayed SPs loaded with BDNF, n=2
Procedure: Next, 2 SPs produced by electrospraying were loaded with BDNF and placed inside the cochlea. Serial perilymph samples (1 ul samples) were obtained from the apex of the cochlea at three days and one week post implantation (sampling techniques described in Plontke et al. (2007) Laryngoscope. 117:1191-1198) and samples were analysed using an ELISA.

[3] = after 1 week of implantation, 1 SP intracochlear

Molecule | neurotrophin-3 remaining ([1]; 3 days after implantation, round window delivery) [%] | neurotrophin-3 remaining ([1]; 3 days, intracochlear delivery) [%] | amount of neurotrophin-3 remaining per SP [1, 3] [µg] | neurotrophin-3 remaining (% of initial loaded amount) [1, 3] [%] | peak BDNF perilymph concentration inside the cochlea ([2]; after 3 days) [ng/mL] | peak BDNF perilymph concentration inside the cochlea ([2]; after 7 days) [ng/mL]
neurotrophin-3 | 47.4 | 56 | ~2 | ~40 | – | –
B1 | – | – | – | – | 1707 | 775
